In the supplement of paper PMC11246515:
± gives the standard deviation of the averaged measurements.

Assay: total protein half-life in vivo (active degradation + dilution); higher = more stable protein
[1] = E. coli NCM3722 delta-clpP delta-lon delta-hslV, growth: N-lim chemostat, doubling time 6 h
[2] = E. coli NCM3722 delta-clpP, growth: N-lim chemostat, doubling time 6 h
[3] = E. coli NCM3722 delta-hslV, growth: N-lim chemostat, doubling time 6 h
[4] = E. coli NCM3722 delta-lon, growth: N-lim chemostat, doubling time 6 h
[5] = E. coli NCM3722 delta-smpB, growth: N-lim chemostat, doubling time 6 h
[6] = wild type E. coli NCM3722, growth: C-lim chemostat, doubling time 3 h
[7] = wild type E. coli NCM3722, growth: C-lim chemostat, doubling time 6 h
[8] = wild type E. coli NCM3722, growth: C-lim chemostat, doubling time 12 h
[9] = wild type E. coli NCM3722, growth: N-lim chemostat, doubling time 6 h
[10] = wild type E. coli NCM3722, growth: N-lim chemostat, doubling time 12 h
[11] = wild type E. coli NCM3722, growth: P-lim chemostat, doubling time 6 h
[12] = wild type E. coli NCM3722, growth: P-lim chemostat, doubling time 12 h

MNKTEFYADLNRDFNALMAGETSFLATLANTSALLYERLTDINWAGFYLLEDDTLVLGPFQGKIACVRIPVGRGVCGTAVARNQVQRIEDVHVFDGHIACDAASNSEIVLPLVVKNQIIGVLDIDSTVFGRFTDEDEQGLRQLVAQLEKVLATTDYKKFFASVAG
total protein half-life in vivo [1]: 4.82 ± 0.66 h
total protein half-life in vivo [2]: 4.43 ± 0.32 h
total protein half-life in vivo [3]: 4 ± 0.26 h
total protein half-life in vivo [4]: 4.523 ± 0.034 h
total protein half-life in vivo [5]: 4.22 ± 0.21 h
total protein half-life in vivo [6]: 3.22 ± 0.55 h
total protein half-life in vivo [7]: 5.38 ± 0.12 h
total protein half-life in vivo [8]: 11.8 ± 3.1 h
total protein half-life in vivo [9]: 4.33 ± 0.57 h
total protein half-life in vivo [10]: 7.72 ± 0.91 h
total protein half-life in vivo [11]: 5.8 ± 0.83 h
total protein half-life in vivo [12]: 9.9 ± 0.11 h

MNKTTEYIDAMPIAASEKAALPKTDIRAVHQALDAEHRTWAREDDSPQGSVKARLEQAWPDSLADGQLIKDDEGRDQLKAMPEAKRSSMFPDPWRTNPVGRFWDRLRGRDVTPRYLARLTKEEQESEQKWRTVGTIRRYILLILTLAQTVVATWYMKTILPYQGWALINPMDMVGQDLWVSFMQLLPYMLQTGILILFAVLFCWVSAGFWTALMGFLQLLIGRDKYSISASTVGDEPLNPEHRTALIMPICNEDVNRVFAGLRATWESVKATGNAKHFDVYILSDSYNPDICVAEQKAWMELIAEVGGEGQIFYRRRRRRVKRKSGNIDDFCRRWGSQYSYMVVLDADSVMTGDCLCGLVRLMEANPNAGIIQSSPKASGMDTLYARCQQFATRVYGPLFTAGLHFWQLGESHYWGHNAIIRVKPFIEHCALAPLPGEGSFAGSILSHDFVEAALMRRAGWGVWIAYDLPGSYEELPPNLLDELKRDRRWCHGNLMNFRLFLVKGMHPVHRAVFLTGVMSYLSAPLWFMFLALSTALQVVHALTEPQYFLQPRQLFPVWPQWRPELAIALFASTMVLLFLPKLLSILLIWCKGTKEYGGFWRVTLSLLLEVLFSVLLAPVRMLFHTVFVVSAFLGWEVVWNSPQRDDDSTSWGEAFKRHGSQLLLGLVWAVGMAWLDLRFLFWLAPIVFSLILSPFVSVISSRATVGLRTKRWKLFLIPEEYSPPQVLVDTDRFLEMNRQRSLDDGFMHAVFNPSFNALATAMATARHRASKVLEIARDRHVEQALNETPEKLNRDRRLVLLSDPVTMARLHFRVWNSPERYSSWVSYYEGIKLNPLALRKPDAASQ
total protein half-life in vivo [1]: 6.7 ± 0.34 h
total protein half-life in vivo [2]: 6.54 ± 0.33 h
total protein half-life in vivo [3]: 6.46 ± 0.79 h
total protein half-life in vivo [4]: 6.41 ± 0.39 h
total protein half-life in vivo [5]: 5.99 ± 0.24 h
total protein half-life in vivo [6]: 3.26 ± 0.39 h
total protein half-life in vivo [7]: 6.45 ± 0.66 h
total protein half-life in vivo [9]: 6.22 ± 0.42 h
total protein half-life in vivo [10]: 13.4 ± 0.32 h
total protein half-life in vivo [11]: 6.3 ± 0.32 h
total protein half-life in vivo [12]: 13.3 ± 1.8 h

MNKVAQYYRELVASLSERLRNGERDIDALVEQARERVIKTGELTRTEVDELTRAVRRDLEEFAMSYEESLKEESDSVFMRVIKESLWQELADITDKTQLEWREVFQDLNHHGVYHSGEVVGLGNLVCEKCHFHLPIYTPEVLTLCPKCGHDQFQRRPFEP [P0AAT9]
total protein half-life in vivo [1]: 5.96 ± 0.99 h
total protein half-life in vivo [2]: 4.62 ± 0.043 h
total protein half-life in vivo [3]: 4.74 ± 0.38 h
total protein half-life in vivo [4]: 5.364 ± 0.034 h
total protein half-life in vivo [5]: 4.05 ± 0.48 h
total protein half-life in vivo [6]: 2.81 ± 0.34 h
total protein half-life in vivo [7]: 4.632 ± 0.011 h
total protein half-life in vivo [8]: 8.29 ± 0.47 h
total protein half-life in vivo [9]: 3.87 ± 0.6 h
total protein half-life in vivo [10]: 10.7 ± 3.1 h
total protein half-life in vivo [11]: 5.95 ± 1.4 h
total protein half-life in vivo [12]: 10.9 ± 0.48 h

MNKYWLSGIIFLAYGLASPAFSSETATLAINGRISPPTCSMAMVNGQPQQHCGQLTYNVDTRHLFSSPVKGVTTEVVVAGSDSKRRIVLNRYD
total protein half-life in vivo [1]: 1.53 h
total protein half-life in vivo [5]: 0.626 ± 0.25 h
total protein half-life in vivo [7]: 0.465 h

MNLHEYQAKQLFARYGLPAPVGYACTTPREAEEAASKIGAGPWVVKCQVHAGGRGKAGGVKVVNSKEDIRAFAENWLGKRLVTYQTDANGQPVNQILVEAATDIAKELYLGAVVDRSSRRVVFMASTEGGVEIEKVAEETPHLIHKVALDPLTGPMPYQGRELAFKLGLEGKLVQQFTKIFMGLATIFLERDLALIEINPLVITKQGDLICLDGKLGADGNALFRQPDLREMRDQSQEDPREAQAAQWELNYVALDGNIGCMVNGAGLAMGTMDIVKLHGGEPANFLDVGGGATKERVTEAFKIILSDDKVKAVLVNIFGGIVRCDLIADGIIGAVAEVGVNVPVVVRLEGNNAELGAKKLADSGLNIIAAKGLTDAAQQVVAAVEGK [P0A836]
total protein half-life in vivo [1]: 4.73 ± 0.42 h
total protein half-life in vivo [2]: 4.59 ± 0.34 h
total protein half-life in vivo [3]: 4.45 ± 0.2 h
total protein half-life in vivo [4]: 4.87 ± 0.23 h
total protein half-life in vivo [5]: 4.18 ± 0.058 h
total protein half-life in vivo [6]: 3.08 ± 0.061 h
total protein half-life in vivo [7]: 5.79 ± 0.26 h
total protein half-life in vivo [8]: 10.5 ± 1.7 h
total protein half-life in vivo [9]: 4.46 ± 0.14 h
total protein half-life in vivo [10]: 7.39 ± 0.36 h
total protein half-life in vivo [11]: 5.95 ± 0.15 h
total protein half-life in vivo [12]: 12.2 ± 1.2 h

MNLLIDNWIPVRPRNGGKVQIINLQSLYCSRDQWRLSLPRDDMELAALALLVCIGQIIAPAKDDVEFRHRIMNPLTEDEFQQLIAPWIDMFYLNHAEHPFMQTKGVKANDVTPMEKLLAGVSGATNCAFVNQPGQGEALCGGCTAIALFNQANQAPGFGGGFKSGLRGGTPVTTFVRGIDLRSTVLLNVLTLPRLQKQFPNESHTENQPTWIKPIKSNESIPASSIGFVRGLFWQPAHIELCDPIGIGKCSCCGQESNLRYTGFLKEKFTFTVNGLWPHPHSPCLVTVKKGEVEEKFLAFTTSAPSWTQISRVVVDKIIQNENGNRVAAVVNQFRNIAPQSPLELIMGGYRNNQASILERRHDVLMFNQGWQQYGNVINEIVTVGLGYKTALRKALYTFAEGFKNKDFKGAGVSVHETAERHFYRQSELLIPDVLANVNFSQADEVIADLRDKLHQLCEMLFNQSVAPYAHHPKLISTLALARATLYKHLRELKPQGGPSNG
total protein half-life in vivo [1]: 5.99 ± 0.51 h
total protein half-life in vivo [5]: 2.728 ± 0.0011 h
total protein half-life in vivo [7]: 3.27 h
total protein half-life in vivo [8]: 6.24 h
total protein half-life in vivo [11]: 2.97 h
total protein half-life in vivo [12]: 6.78 ± 1.8 h
